Results published in paper PMC9493720.

Assays:
[1] = target: human surfactant protein A (SP-A), native, supratrimeric (human) (UniProt Q8IWL2); assay: native gel or EMSA + other: electron microscopy + AUC; degree of oligomerization of isolated SP-A; electrophoresis under nondenaturing conditions, electron microscopy and analytical ultracentrifugation
[2] = target: human surfactant protein A (SP-A), native, supratrimeric (human) (UniProt Q8IWL2); assay: other fluorescence titration; intrinsic tryptophan fluorescence of SP-A (15 nM) or rfhSP-A (0.3 μM), polymyxin added at increasing concentrations, 25°C, 5 mM Tris-HCl pH 7.4 with 150 mM NaCl; apparent KD from the Hill equation
[3] = target: recombinant trimeric fragment of human SP-A1 (rfhSP-A) (human); assay: other fluorescence titration; intrinsic tryptophan fluorescence of rfhSP-A, PMB added, 25°C, 5 mM Tris-HCl pH 7.4 without NaCl; apparent KD from the Hill equation

A stoichiometry N [1] greater than 18 was found for “human surfactant protein A (SP-A), native, supratrimeric (from UniProt Q8IWL2 21-248) (natural protein)” in this work.
A Kd [2] of 320 nM and a Kd [3] of 1370 nM were found for polymyxin B (PMB) (peptide) in this work.
A Kd [2] of 260 nM was found for polymyxin B nonapeptide (PMBN) in this work.
